# Reference: the nanobody polyreactivity screen of Harvey et al. (2022)
# Experiment: yeast display, Sf9 membrane polyspecificity reagent, FACS + sequencing; frameworks hold sequencing errors
# How it was run: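 Nanobodies came from a synthetic yeast display library in Saccharomyces cerevisiae BJ5465, induced with galactose for 36–48 hours and stained for 1 hour at 4 °C with 10% biotinylated, detergent-solubilized Sf9 membrane reagent. Cells were enriched on streptavidin microbeads and then FACS-sorted, with low and high (top ~1%) gates set on anti-HA fluorescence for expression and streptavidin fluorescence for reagent binding. Each polyreactivity label reflects the gate a clone came from. Genes were amplified by colony PCR, sequenced by MiSeq 2 × 250 and filtered by CDR length.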
row,Sequence,polyreactivity (PSR sort gate)
1,QVQLVESGGGLVQAGGSLRLSCAASGITFSSYTMGWYRQAPGKERELVAVISSGGSTNYADSVKGRFTISRDNAKNTVYLQMNSLKPEETAVYYCAARRSKYIPYYGKWYYRAFDYWGQGTQVSVSS,high polyreactivity
2,QVQLVESGGGLVQAGGSLRLSCAASGITFSSYTMGWYRQARGKERELVAAISRTGGSTYYADSVKGRFTISRDNAKNTVYLQMNSLIPEDTAVYYCAARVAGRTLSGGDYWGQGTQVTVSS,high polyreactivity
3,QVQLVESGGGLVQAGGSLRLSCAASGITFSSYVMGWYRQAPGKERELDAAISRSGGITYYADSVKGRFTISRDNAKNTVYLQMNSLKPEDTAVYYCAVRYYIYRPGGYDYWGQGTQVTVSS,high polyreactivity
4,QVQLVESGGGLVQAGGSLRLSCAASGITFSVYAMGWYRQAPRKERELVASISSGGTSTYYADSVKGRFTISRDNAKNTVYLQMNSLKPEDTPVYYCAAYSYYTRDPYSYDYWGQGTQVTVSS,low polyreactivity
5,QVQLVESGGGLVQAGGSLRLSCAASGITFSYYAMGWYRQAPGKERELVAAISRTGTSTYYADSVKGRFTISRDNAKNTVYLQMNSLKPEDTAVYYCAARYYYWGQGTQVTVSS,high polyreactivity
6,QVQLVESGGGLVQAGGSLRLSCAASGITFSYYAMGWYRQAPGKERELVAAISWSGGTTYYADSVKGRFTISRDNAKNTVYLQMNSLKPEDTAVYYCAADGGAVGSDYWGQGTQVTVSS,high polyreactivity
7,QVQLVESGGGLVQAGGSLRLSCAASGITFSYYAMGWYRQAPGKERELVAAISYTSGSTYYADSVKGRFTISRDNAKNTVYLQMNSLKPEDTAGYYCAARSRWSKQFRYDYWGQGTQVTVSS,high polyreactivity
8,QVQLVESGGGLVQAGGSLRLSCAASGITFSYYAMGWYRQAPGKERELVATIRSSGGSTYYADSVKGRFTISRDNAKNTVYLQMNSLKPEDTAVYYCAVRLWFDYNYWGQGTQVTVSS,low polyreactivity
9,QVQLVESGGGLVQAGGSLRLSCAASGITFSYYTLGWYRQAPGKERELFARINSGGTTNYADSVKGRFTISRDNAKNTVYLQMNSLKPEDTAVYYCAAEWVSWRWAHKFDYWGQGTQVTVSS,high polyreactivity
10,QVQLVESGGGLVQAGGSLRLSCAASGITFTGYAMGWYRPAPGKERELGAAITWSSGSTYYADSVKGRFTISRDNAKNTVYLQMNSLKPEDTAVYYCAAEVNVGTLLLSVIVEDGDYWGQGTQVTVSS,low polyreactivity
11,QVQLVESGGGLVQAGGSLRLSCAASGITFTGYAMGWYRQAPGKERELVAAISVSTVSTYYADSVKGRFTISRDNAKNTDYLQMTSLKPEDTAVYYCNADATDSYPEKDEHDSWGQGTQVTVSS,low polyreactivity
12,QVQLVESGGGLVQAGGSLRLSCAASGITFTGYAMGWYRQAPGKERELVAVISETGGSTYADSVKGRFTISRDNAKNTVYLQMNSLKPEDTAVYYCAADPHDTVRHDALVELEYWGQGTQVTVSS,low polyreactivity
13,QVQLVESGGGLVQAGGSLRLSCAASGITFTGYAMGWYRQAPGKERELVAVISETGGSTYADSVKGRFTISRDNAKNTVYLQMNSLKREDTAVYYCAARLWWPYSTAWAKMDYWGQGTQVTVSS,low polyreactivity
14,QVQLVESGGGLVQAGGSLRLSCAASGITFTRYAMGWYRQAPGKEREFVAAIRRSGGNTYYADSVKGRFTISRDNAKNNVYLQRNSLKPEESAVYYCPASFRKTSPTRLVDYWGLGTQVTVSS,low polyreactivity
15,QVQLVESGGGLVQAGGSLRLSCAASGITFTSYVMGWYRQAPGKERELVAAIRWSGGRTYYADSVKGRFTISRDNAKITVYLQMNSLKPEDTAVYYCNRVTRSHVDYWGQGTQVTLSS,high polyreactivity
16,QVQLVESGGGLVQAGGSLRLSCAASGITFTVYAMGWYRQAPGKERELVAAITSTGSTNYADSVKGRSTISRDNAKNTVYLQMNSLKPEDTAVYYCAADRQITVYAYDYWGQGTQVTVSS,low polyreactivity
17,QVQLVESGGGLVQAGGSLRLSCAASGITFTYYVMGWYRQAPGKERELVAAISSGGRTYYADSVKGRFTISRDNAKNTVYLEMNSLKPEDTAVYYCNADQYLRYFGRYYRSGEYWGQGTQVTVSS,high polyreactivity
18,QVQLVESGGGLVQAGGSLRLSCAASGITFVFYAMGWYRQAPGKERELVATISYRGTSTYYADSVKGRFTISRDNAKNTVYLQMNSLKPEDTAVYYCAADTYIYYKTGYGYWGQGTQVTVSS,low polyreactivity
19,QVQLVESGGGLVQAGGSLRLSCAASGITFVFYTMGWYRQAPGKERELVAAIARSGASTYYADSVKGRFTLSRDNAKNTVYLQMNSLKPEDTALYYGAADRGYRFRMDYWGQGTQVTVSS,high polyreactivity
20,QVQLVESGGGLVQAGGSLRLSCAASGITFVFYTMGWYRQAPGKETELVAAISRSGASTYYADSVKGRFTISRDNAKNTVYLQMNSLKPEDTAVYYCAADRGYRFRMDYWGQGTQVTVST,high polyreactivity
21,QVQLVESGGGLVQAGGSLRLSCAASGITFVGNAMGWYRQAPGKERELVAVISRGDSTNYADSVKGRFTISRDNAKNTVYLQMNSLKPEDTAVYYCAADGSRAGQEGNDYCGQGTQVTVSS,low polyreactivity

row,Sequence,polyreactivity (PSR sort gate)
1,QVQLVESGGGLVQAGGSLRLSCAASGITFVGNARGWYRQAPGKERELVAGIRGNGGSTYYADSVKGRFTISRDNAKNTVYLQMNSLKPEDTAVYYCAAAAYYADFDYWGQGTQVTVSS,low polyreactivity
2,QVQLVESGGGLVQAGGSLRLSCAASGITFVHYAMGWYRQAPGKERELVAAITVGDGGTYYADSVKGRFTISRDNAKNTVYLQMNSLKPEDTAVYYCAAGFYSYSWYVKLAYGYWGQGIQVTVSS,low polyreactivity
3,QVQLVESGGGLVQAGGSLRLSCAASGITFVLYAMGWYRQAPGKEREFVAAITNSGGSTYYADSVKGRFTISRDNAKNTVYLQMNSLKPEDTAVYYCAATRRRYRPYEYWGQGTQVTVSS,high polyreactivity
4,QVQLVESGGGLVQAGGSLRLSCAASGITFVLYAMGWYRQAPGKERELVAAITWRGGSTYYADSVKGRFTISRDNAKNTVYLQMNSLKPEDTAVYYCAAVPFTSYRQGDYWGQGTQVTVSS,low polyreactivity
5,QVQLVESGGGLVQAGGSLRLSCAASGITFVPNAMGWYRQAPGKERELVAAINNGGSTYYADSVKGRFTISRDNAKNTVYLQMNSLKPEDTAVYYCAAVSLSTVRGYYYWGQGTQVTVSS,low polyreactivity
6,QVQLVESGGGLVQAGGSLRLSCAASGITFVQYAMGWYRQAPGKERELVAAITSDGRTYYADSVKGRFTISRDNAKNTVYLQMNSLKPEDTAVYYCAADVWRYTAYGGAYRRDYWGQGTQVTVSS,low polyreactivity
7,QVQLVESGGGLVQAGGSLRLSCAASGITFVRNAMGWYRQAPGKEREFVAAISGSGVSTYADSVKGRFTISRDNAKNTVYLQMNSLKPEDTAVYYCARDFPWSYAWYDYWGQGTQVTVSS,low polyreactivity
8,QVQLVESGGGLVQAGGSLRLSCAASGITFVRYAMGWYRQAPGKERELVAAIRQNGGDTYYADSVKRRFTISRDNAKNTDYLQMNSLKPEDTAVYYCNARMRGAGGYTYYYWGQGTQVTVSS,high polyreactivity
9,QVQLVESGGGLVQAGGSLRLSCAASGITFVRYAMGWYRQAPGKERELVAVISRGGITNYADSVKGRFTISRDNAKNTVYLQMNSLKPEDTAVYYCAVRGRSYVRTYDYWGQGTQVTVSS,high polyreactivity
10,QVQLVESGGGLVQAGGSLRLSCAASGITFWFYAMGWYRQAPGKERELVADITSGGSTYYADSVKGLFTISRDNAKNTVYLQMNSLKPEDTAVYYCAADSWDSLAGLWDWNGPYYYWGQGTQVTVSS,low polyreactivity
11,QVQLVESGGGLVQAGGSLRLSCAASGITFWSYAMGWYRQAPGKERELVAAISRGGDSTYYADSVKGRFTISRDNAKNTVYLQMNSLKPEDTAVYYCAALRKREEYYWGQGTQVTVSS,high polyreactivity
12,QVQLVESGGGLVQAGGSLRLSCAASGITFWYYAMGWYRQAPGKERELVAAISSSGGRTTYADSVKGRFTISRDNAKNTVYLQMNSLKPEDTAVYYCATTYGDRYVTAYDYWGQGTQVTVSS,high polyreactivity
13,QVQLVESGGGLVQAGGSLRLSCAASGITFYAYAIGWYRQAPGKERELVAAITSSGGNTYYADSVKGRFTISRDNAKNTVYLQMKSLKPEDTAVYYCNIRRYWWWQMGYWGQGTQVTVSS,high polyreactivity
14,QVQLVESGGGLVQAGGSLRLSCAASGITFYDYAMGWYRQAPGKERELVAAISGGGITYYADSVKGRFTISRDNAKNTVYLQMNSLKPEDTAVYYCAADAYGYGGDSWGQGTQVTVSS,low polyreactivity
15,QVQLVESGGGLVQAGGSLRLSCAASGITFYEYAMGWYRQAPGKERELVAAISTSGGNTYYADSVKGRFTISRDNAKNTVYLQMKSLKPEDTAVYYCAAQGTASSYSGGDYWGQGTQVTVSS,low polyreactivity
16,QVQLVESGGGLVQAGGSLRLSCAASGITFYEYAMGWYRQAPGKERELVATITSGGNTNYADSVKGRFTISRDNAKNTVYLQMNSLKPEDTAVYFCATRPYGYSCNRPYDYWGQGTQVTVSS,low polyreactivity
17,QVQLVESGGGLVQAGGSLRLSCAASGITFYFNAMGWYRQAPGKERELVAAISFSGGGTYYADSVKGRFTISRDNAKNTVYLQMTSLKPEDTAVYYCNADYGRGTLRSIYDYWGQGTQVTVSS,low polyreactivity
18,QVQLVESGGGLVQAGGSLRLSCAASGITFYFYAMGWYRQAPGKERELVAAITRGGRTNYADSVKGRFTISRDNAKNTVYLQMNSLKPEDTAVYYCNKRLYSYYPGKYVAEYDYWGQGTQVTVSS,high polyreactivity
19,QVQLVESGGGLVQAGGSLRLSCAASGITFYFYTMGWYRQAPGKERELVAAISRGGGSTYYADSVKGRFTISRDNAKNTVYLQMNSLKPEDTAVYYCAADYKPHYYHDDYWGQGTQVTVSS,low polyreactivity
20,QVQLVESGGGLVQAGGSLRLSCAASGITFYGYAMGWYRHAPGKERELVATISSGGGTNYADSVKGRFTISRDNAKNTVYLQMNSLKPEDSAVYYCATDLSTVDYNYWGQGTQVTVSS,low polyreactivity
